Measured values reported in US20230250158A1 (TALEM THERAPEUTICS, published 2023).
Positions count from the first letter of the chain named. Read-outs that look alike come from different tables or passages of the source.

B1: 23-H7 (antibody, V domains shown)
VH: QVQLVQSGAEVKLPGASMKVSCKASGYTFSTYYMHWVRQAPGQGPEWMGVIDPSGGTTSYAQKFHDRIAMTRDTSTSTAYLELSSLRSEDMAVYYCARGGFADAVDYWGQGTLVTVSS
VL: NFMLTQPHSVSGSPGKTVTISCTRNSGSIAGNYVQWYQQRPGSAPTTVIYEDNQRPSGVPDRFSGSIDSSSNSASLTISGLKTEDEADYYCQSYDASHLHVIFGGGTKVTVL
notes: also called bin 2
B2: 23-A11 (antibody, V domains shown)
VH: QVQLVESGGGVVQPGRSLRLSCAASGFTFSSYGMHWVRQAPGKGLEWVAVISYDGSNKYYADSVKGRFTISRDNSKNTLYLQMNSLRAEDTAVYYCAKEGELRGAFDIWGQGTMVTVSS
VL: SYVLTQPPSVSVAPGKTARITCGGDNIESKYVHWYQQKPGQAPVLVIYYDTDRPSGIPERFSGANSGNSATLTISRVEAGDEADYYCQVWDRTSGHFVFGPGTKVTVL
B3: 8-A2 (antibody, V domains shown)
VH: QVQLVQSGAEVKKPGASVKVSCKASGYTFTGYYLHWVRQAPGQGLEWMGRINPNSGGTNYAQKFQGRVTMTRDTSISTAYMELSRLTSDDTAVYYCLAVAGTGGDAFDIWGQGTTVTVSS
VL: DIQMTQSPSTLSASVGDRVTITCRASQSISSWLAWYQQKPGKAPKLLIYAASSLESGVPSRFSGSGSGTDFTLTISSLQPEDFATYYCQQGHSFPLTFGGGTKVDIK
B4: 2-A6 (antibody, V domains shown)
VH: QVTLRESGPALVKPTQTLTLTCTFSGFSLNTRGMSVSWIRQPPGKALEWLALIDWEDDKFYRTSLMTRLTISKDIFKNQVVLTMTNVDPVDTGTYYCARTYSVGVKYFGMDVWGQGTTVTVSS
VL: SSELTQDPAVSVALGQTVRITCQGDSLRNYYASWYRQEPGQAPILLIYGGNYRPSGIPDRFSGSSSGNTASLTITGAQAEDEADYYCNSRDSSGNHVVFGGGTKLTVL
notes: also called bin S2
B5: 11-H1 (antibody, V domains shown)
VH: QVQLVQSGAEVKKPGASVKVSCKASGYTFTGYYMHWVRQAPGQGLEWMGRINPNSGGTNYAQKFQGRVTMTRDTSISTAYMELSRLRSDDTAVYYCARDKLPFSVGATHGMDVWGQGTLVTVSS
VL: QSVLTQPPSVSEAPRQRVTISCSGSSSNIGNNAVNWYQQLPGQAPRLLIYYDNLLPSGVSDRFSASTSGTSASLAISDLRSEDEADYYCASWDDRLDSPVFGGGTKLTVL
B6: 22-E8 (antibody, V domains shown)
VH: QVQLVQSGAEVKKPGSSVKVSCKASGGTFSSYAISWVRQAPGQGLEWMGGIIPIFGTTNYAQKFQGRVTITADESTSTAYMELSSLRSEDTAVYYCARDHGYYYGMDVWGQGTTVTVSS
VL: QSVLTQPSSVSAAPRQRVTLSCSGGDSNIGQNGVNWYLHVPGKAPRLVVYYDYLVSAGMSARFSGSRSGTSASLAISGLQSEDEGVYYCASWDDSLSAWVFGGGTKLTVL
B7: 24-B8 (antibody, V domains shown)
VH: QVQLVQSGAEVKKPGSSVKVSCKASGGTFSNYAISWVRQAPGQGLEWMGGIIPILDTTNYAQKFQGRVTITADESTSTAYMELNSLRSEDTAVYYCVREEGFDYWGQGTLVTVSS
VL: QSVLTQPSSLSASPGASASLTCTLRSGINVGAYNIYWYQQKPGSPPQFVLRYNSDSDNQQGSGVPSRFSGSKDASANAGILLISGLQSEDEAEYYCMIWRSSAWVFGGGTKLTVL
B8: 22-F7 (antibody, V domains shown)
VH: QVQLVESGGGVVQPGRSLRLSCAASGFSFTNYGMHWVRQAPGKGLEWVAVISYDGSIKYYEDSLKGRFTVSRDNSKKTLYLQMNSLRAEDTAVYYCTRERGTGIDYWGLGTLVTVSS
VL: QSALTQPASVSGYPGQSITLSCTGTKSDIGAYNYVSWYQQHPGKAPKLMVYDVSNRPSGLSNRFSGSKSDNTASLTISGLQAEDEAHYYCSSYTTSGTVVFGGGTKVTVL
notes: also called bin C
B9: 5-B6 (antibody, V domains shown)
VH: QVQLVQSGAEVKKPGSSVKVSCKASGGTFSSYAISWVRQAPGQGLEWVGGIIPMFNSASYAQKFQGKVTITADKATNTAYMELSSLRSEDTAVYYCARESSGYYYVSNWFDPWGQGTLVTVSS
VL: QSVLTQPSSVSGAPGQRVTISCTGSSSNIGAGYDVHWYQQIPGTAPRLLIYANSGRASGVPDRFSGSKSGTSASLAITGLQAEDEADYYCQSYDSSLSGVVFGGGTKLTVL
B10: 27-A11 (antibody, V domains shown)
VH: QVQLVQSGAEVKKPGASVKVSCKASGYTFTSYYMHWVRQAPGQGLEWMGIIDPSGGSTSYAQKFQGRVTLTRDTSTSTVYMELSSLRSEDTAVYYCARSRDGYIDDAFDIWGQGTLVTVSS
VL: QSVLTQPPSVSAAPGQKVTISCSGSSSNIGNNYVSWYQQLPGTAPKLLIYDNNKRPSGIPDRFSGSKSGTSATLGITGLQTGDEADYYCGTWDSSLSAGVFGGGTKLTVL
B11: 21-H1 (antibody, V domains shown)
VH: B2 VH with M114T
VL: DIVMTQSPLSLPVTPGEPASISCTSSQSLLHSIGYNFVDWYLQKPGQSPQLLIYSASNRASGVPDRFSGSGSGTDFTLKISRVEAEDVGVYYCMQALQRTLYTFGQGTKVESK
B12: 22-D9 (antibody, V domains shown)
VH: QVQLVQSGAEVKKPGSSVNVSCKTSGGTFNTYSINWVRQAPGQGLEWMGEIIPIFDKPNYAQKFQGRVTITADESTSTAYMELTSLRSDDTAVYYCARGTGYYYGMDVWGQGTTVTVSS
VL: QSVLTQPPSVSGAPRQTVTISCFGSRSNIGNYPVNWYHQVPGKAPKVVVYYDDLLPSGISDRFSGYKSGTSASLTISGLRSEDEADYYCATWDDSLNVWVFGGGTKLTVL
notes: also called bin 4
B13: 21-F2 (antibody, V domains shown)
VH: QVQLVQSGAEVKKPGASVTVSCKTSGYIFTNYDINWVRQAPGQGLEWVGWVNPNSGKVGYAQKFQGRVIMTRSDSESTAYMELTNLTSDDTAVYYCARGHTDFWGQGTLVTVSS
VL: QSVLTQPPSVSEAPRQRVTISCSGSSSNIGNNAVNWYQQLPGRAPKLLIYYDDLLPSGVSDRFSGSKSGTSASLAISGLQSEDEADYYCAAWDDSLNGVVFGGGTQLTVL
B14: 21-F2 optimized (antibody, V domains shown)
VH: B13 VH with N85Q
VL: B13 VL
B15: 22-D9 Fab (Fab, V domains shown)
VH: B12 VH
VL: B12 VL
B16: 23-H7 Fab (Fab, V domains shown)
VH: B1 VH
VL: B1 VL

Assays:
Wuhan-1 = assay: flow cytometry on Spike-transfected HEK293F cells, heat map
[1] = target: SARS-CoV-2 Spike protein on VSV pseudotyped virus particles (Wuhan-1 isolate Spike sequence) (SARS-CoV-2, UniProt P0DTC2 13-1273); assay: cell-based or functional assay
[2] = target: SARS-CoV-2 Spike on SARS-CoV2-S CHO-K1 cells (wild-type, Wuhan-1) (SARS-CoV-2, UniProt P0DTC2 13-1273); assay: flow cytometry on SARS-CoV2-S CHO-K1 cells, anti-human IgG-PE detection
SARS-CoV-2 Spike RBD-hFc [3] = target: T1, SARS-CoV-2 Spike RBD-hFc (SARS-CoV-2, UniProt P0DTC2 319-541); assay: Octet, Fab as analyte over RBD-hFc on AHC sensor
SARS-CoV-2 Spike RBD-hFc [4] = target: T1, SARS-CoV-2 Spike RBD-hFc; assay: Octet BLI; Fab as analyte over RBD-hFc on AHC sensors; steady-state analysis
SARS-CoV-2 Spike RBD-hFc [5] = target: T1, SARS-CoV-2 Spike RBD-hFc; assay: Octet BLI; Fab as analyte over RBD-hFc on AHC sensors; 1:1 kinetic fit
SARS-CoV-2 Spike S1-hFc [6] = target: T2, SARS-CoV-2 Spike S1-hFc (SARS-CoV-2, UniProt P0DTC2 16-685)
SARS-CoV-2 Spike RBD-hFc [7] = target: T1, SARS-CoV-2 Spike RBD-hFc
SARS-CoV-2 Spike S1-hFc [8] = target: T2, SARS-CoV-2 Spike S1-hFc; assay: Octet BLI; Fab as analyte over S1-hFc on AHC sensors; 1:1 kinetic fit

Binder | Pseudovirus IC50 [1] [µg/mL] | also measured
B1 | 0.84 | binding result (Wuhan-1): binds
B2 | > 42 | –
B3 | > 42 | –
B4 | > 42 | –
B5 | > 42 | –
B6 | 11.2 | –
B7 | 6.26 | –
B8 | 12.6 | –
B9 | > 42 | –
B10 | 12.8 | –
B11 | > 42 | –
B12 | 4.99 | binding result (Wuhan-1): binds
B13 | 0.84 | –
B14 | – | binding result [2]: binds
B15 | – | Kd (SARS-CoV-2 Spike RBD-hFc [3]): 160 nM; Kd (SARS-CoV-2 Spike RBD-hFc [4]): 163 nM
B16 | – | Kd (SARS-CoV-2 Spike RBD-hFc [5]): 13 nM; Kd (SARS-CoV-2 Spike S1-hFc [6]): 6 nM; Kd (SARS-CoV-2 Spike RBD-hFc [7]): 9 nM; Kd (SARS-CoV-2 Spike S1-hFc [8]): 14 nM
